Measurements from patent US20120213763A1 (COUNCIL OF SCIENTIFIC AND INDUSTRIAL RESEARCH, published 2012).
Substitutions are numbered along the chain they refer to. Numbers in names are those of the source.

B1: native streptokinase nSK (1-414) ATCC 12449 (SEQ ID NO 1) (other)
chain: IAGPEWLLDRPSVNNSQLVVSVAGTVEGTNQDISLKFFEIDLTSRPAHGGKTEQGLSPKSKPFATDSGAMSHKLEKADLLKAIQEQLIANVHSNDDYFEVIDFASDATITDRNGKVYFADKDGSVTLPTQPVQEFLLSGHVRVRPYKEKPIQNQAKSVDVEYTVQFTPLNPDDDFRPGLKDTKLLKTLAIGDTITSQELLAQAQSILNKNHPGYTIYERDSSIVTHDNDIFRTILPMDQEFTYRVKNREQAYRINKKSGLNEEINNTDLISEKYYVLKKGEKPYDPFDRSHLKLFTIKYVDVDTNELLKSEQLLTASERNLDFRDLYDPRDKAKLLYNNLDAFGIMDYTLTGKVEDNHDDTNRIITVYMGKRPEGENASYHLAYDKDRYTEEEREVYSYLRYTGTPIPDNPNDK
B2: PEGylated SK S105C (SEQ ID NO 33) (other)
chain: B1 chain with S105C
modifications: PEG (thiol-reactive methoxy-PEG maleimide) on Cys 105
B3: PEGylated SK K121C (SEQ ID NO 35) (other)
chain: B1 chain with K121C
modifications: PEG (thiol-reactive methoxy-PEG maleimide) on Cys 121
B4: PEGylated SK D173C (SEQ ID NO 39) (other)
chain: B1 chain with D173C
modifications: PEG (thiol-reactive methoxy-PEG maleimide) on Cys 173
B5: PEGylated SK L179C (SEQ ID NO 41) (other)
chain: B1 chain with L179C
modifications: PEG (thiol-reactive methoxy-PEG maleimide) on Cys 179
B6: PEGylated SK N255C (SEQ ID NO 46) (other)
chain: B1 chain with N255C
modifications: PEG (thiol-reactive methoxy-PEG maleimide) on Cys 255
B7: PEGylated SK Lys 257 Cys (SEQ ID NO 48) (other)
chain: B1 chain with K257C
modifications: PEG (thiol-reactive methoxy-PEG maleimide) on Cys 257
B8: PEGylated SK Ser 258 Cys (SEQ ID NO 49) (other)
chain: B1 chain with S258C
modifications: PEG (thiol-reactive methoxy-PEG maleimide) on Cys 258
B9: PEGylated SK L260C (SEQ ID NO 50) (other)
chain: B1 chain with L260C
modifications: PEG (thiol-reactive methoxy-PEG maleimide) on Cys 260
B10: PEGylated SK C-Cys (SEQ ID NO 490), Cys at C + 1 position in SK (other)
chain: IAGPEWLLDRPSVNNSQLVVSVAGTVEGTNQDISLKFFEIDLTSRPAHGGKTEQGLSPKSKPFATDSGAMSHKLEKADLLKAIQEQLIANVHSNDDYFEVIDFASDATITDRNGKVYFADKDGSVTLPTQPVQEFLLSGHVRVRPYKEKPIQNQAKSVDVEYTVQFTPLNPDDDFRPGLKDTKLLKTLAIGDTITSQELLAQAQSILNKNHPGYTIYERDSSIVTHDNDIFRTILPMDQEFTYRVKNREQAYRINKKSGLNEEINNTDLISEKYYVLKKGEKPYDPFDRSHLKLFTIKYVDVDTNELLKSEQLLTASERNLDFRDLYDPRDKAKLLYNNLDAFGIMDYTLTGKVEDNHDDTNRIITVYMGKRPEGENASYHLAYDKDRYTEEEREVYSYLRYTGTPIPDNPNDKC
modifications: PEG (thiol-reactive methoxy-PEG maleimide) on the Cys at C + 1 position
B11: PEGylated SK N-Cys (SEQ ID NO 489), Cys at N - 1 position in SK (other)
chain: CIAGPEWLLDRPSVNNSQLVVSVAGTVEGTNQDISLKFFEIDLTSRPAHGGKTEQGLSPKSKPFATDSGAMSHKLEKADLLKAIQEQLIANVHSNDDYFEVIDFASDATITDRNGKVYFADKDGSVTLPTQPVQEFLLSGHVRVRPYKEKPIQNQAKSVDVEYTVQFTPLNPDDDFRPGLKDTKLLKTLAIGDTITSQELLAQAQSILNKNHPGYTIYERDSSIVTHDNDIFRTILPMDQEFTYRVKNREQAYRINKKSGLNEEINNTDLISEKYYVLKKGEKPYDPFDRSHLKLFTIKYVDVDTNELLKSEQLLTASERNLDFRDLYDPRDKAKLLYNNLDAFGIMDYTLTGKVEDNHDDTNRIITVYMGKRPEGENASYHLAYDKDRYTEEEREVYSYLRYTGTPIPDNPNDK
modifications: PEG (thiol-reactive methoxy-PEG maleimide) on the Cys at N - 1 position
B12: PEGylated SK D95C (SEQ ID NO 30) (other)
chain: B1 chain with D95C
modifications: PEG (thiol-reactive methoxy-PEG maleimide) on Cys 95
B13: PEGylated SK D96C (SEQ ID NO 31) (other)
chain: B1 chain with D96C
modifications: PEG (thiol-reactive methoxy-PEG maleimide) on Cys 96
B14: PEGylated SK D102C (SEQ ID NO 32) (other)
chain: B1 chain with D102C
modifications: PEG (thiol-reactive methoxy-PEG maleimide) on Cys 102
B15: bi-pegylated NC 1-414 (SEQ ID NO 491), Cys at N - 1 and at C + 1 position in SK (other)
chain: CIAGPEWLLDRPSVNNSQLVVSVAGTVEGTNQDISLKFFEIDLTSRPAHGGKTEQGLSPKSKPFATDSGAMSHKLEKADLLKAIQEQLIANVHSNDDYFEVIDFASDATITDRNGKVYFADKDGSVTLPTQPVQEFLLSGHVRVRPYKEKPIQNQAKSVDVEYTVQFTPLNPDDDFRPGLKDTKLLKTLAIGDTITSQELLAQAQSILNKNHPGYTIYERDSSIVTHDNDIFRTILPMDQEFTYRVKNREQAYRINKKSGLNEEINNTDLISEKYYVLKKGEKPYDPFDRSHLKLFTIKYVDVDTNELLKSEQLLTASERNLDFRDLYDPRDKAKLLYNNLDAFGIMDYTLTGKVEDNHDDTNRIITVYMGKRPEGENASYHLAYDKDRYTEEEREVYSYLRYTGTPIPDNPNDKC
modifications: PEG (methoxy-PEG maleimide, 20 KDa) on the Cys at N - 1 and on the Cys at C + 1
B16: bi-pegylated NC 1-383 (SEQ ID NO 493), Cys at N - 1 and at C + 1 position in SK (1-383, G3) (other)
chain: CIAGPEWLLDRPSVNNSQLVVSVAGTVEGTNQDISLKFFEIDLTSRPAHGGKTEQGLSPKSKPFATDSGAMSHKLEKADLLKAIQEQLIANVHSNDDYFEVIDFASDATITDRNGKVYFADKDGSVTLPTQPVQEFLLSGHVRVRPYKEKPIQNQAKSVDVEYTVQFTPLNPDDDFRPGLKDTKLLKTLAIGDTITSQELLAQAQSILNKNHPGYTIYERDSSIVTHDNDIFRTILPMDQEFTYRVKNREQAYRINKKSGLNEEINNTDLISEKYYVLKKGEKPYDPFDRSHLKLFTIKYVDVDTNELLKSEQLLTASERNLDFRDLYDPRDKAKLLYNNLDAFGIMDYTLTGKVEDNHDDTNRIITVYMGKRPEGENASYHLAGGGC
modifications: PEG on the Cys at N - 1 and on the C-terminal Cys placed after three glycine residues

Target: T1, human plasminogen (HPG) (human, UniProt P00747 97-810)
Assay: cell-based or functional assay

T1 sequence (P00747 97-810): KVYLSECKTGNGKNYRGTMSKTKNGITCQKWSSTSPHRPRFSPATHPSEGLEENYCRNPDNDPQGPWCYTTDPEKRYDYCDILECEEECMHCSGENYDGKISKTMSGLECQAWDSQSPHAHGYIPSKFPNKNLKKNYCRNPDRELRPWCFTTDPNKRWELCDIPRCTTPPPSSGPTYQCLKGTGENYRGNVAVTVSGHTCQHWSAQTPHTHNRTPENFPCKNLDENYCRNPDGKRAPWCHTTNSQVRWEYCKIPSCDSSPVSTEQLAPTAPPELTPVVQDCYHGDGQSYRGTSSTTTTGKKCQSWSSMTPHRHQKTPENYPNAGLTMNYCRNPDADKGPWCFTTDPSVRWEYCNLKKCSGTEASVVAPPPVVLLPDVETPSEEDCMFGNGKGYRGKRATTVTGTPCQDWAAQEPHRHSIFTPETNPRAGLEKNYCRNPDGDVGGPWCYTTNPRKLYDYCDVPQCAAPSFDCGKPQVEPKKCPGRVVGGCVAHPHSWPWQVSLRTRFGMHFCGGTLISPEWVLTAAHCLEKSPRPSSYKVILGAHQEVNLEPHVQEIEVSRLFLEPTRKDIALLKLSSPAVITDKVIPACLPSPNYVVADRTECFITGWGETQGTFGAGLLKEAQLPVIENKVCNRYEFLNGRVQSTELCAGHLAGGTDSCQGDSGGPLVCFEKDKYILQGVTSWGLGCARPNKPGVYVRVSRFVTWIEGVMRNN

Compared with B1, B2 is lower in “% Plasminogen activation” value: 100% for the first, 76% for the second.

Compared with B3, B4 is lower in “% Plasminogen activation” value: 95% for the first, 72% for the second.

First: B5
Second: B6
The “% Plasminogen activation” value of the first is lower: 22% for the first, 98% for the second.

First: B7
Second: B8
The “% Plasminogen activation” value of the first is lower: 92% for the first, 100% for the second.

Compared with B9, B10 is lower in “% Plasminogen activation” value: 100% for the first, 95% for the second.

Compared with B11, B12 is higher in “% Plasminogen activation” value: 88% for the first, 96% for the second.

Compared with B13, B14 is lower in “% Plasminogen activation” value: 98% for the first, 74% for the second.

Target: T1, human plasminogen (HPG)
Assay: cell-based or functional assay
Remark: another data set of the same source

First: B1
Second: B15
The “% Plasminogen Activation* (pre-complexed with equimolar plasmin)” value of the first is higher: 100% for the first, 88% for the second.

In the case of B16, the “% Plasminogen Activation* (pre-complexed with equimolar plasmin)” value is reported as 92%.

First: B1
Second: B15
The “% Plasminogen activation” value of the first is higher: 100% for the first, under 5% for the second.

With B16 the “% Plasminogen activation” value was under 5%.

First: B1
Second: B15
The “Lag” value of the first is 14-fold lower: 1 min for the first, 14 min for the second.

In the case of B16, the “Lag” value is reported as 12 min.

Target: human plasminogen (HPG) (human) (UniProt P00747)
Assay: cell-based or functional assay

Sequence of human plasminogen (HPG) (human) (P00747 97-810): as above

“PEGylated SK C-383 Cys (SEQ ID NO 492), Cys at C + 1 position of SK 1-383, G3 (from UniProt P00779 27-409)” gave a % Plasminogen activation of 92%.
